The values that follow are results of earlier work, collected in patent US20200069786A1, “COMPOSITION AND PROCESS FOR PREPARING VACCINE” (TREOS BIO ZRT., priority 2018, published 2020).

In this series the test system is TSA. Conditions: for TSA Expression Rate (ER): BREAST.
Setting [1] is: TSA expression rate in PROSTATE cancer.

Like-named read-outs stand apart in the source and are kept apart here.

B1: SPATA19 (protein, UniProt Q7Z5L4 25-167, looked up)
Spermatogenesis-associated …: SSDIDVVESEAVSVLHHWLKKTEEEASRGIKEKLSINHPSQGVREKMSTDSPPTHGQDIHVTRDVVKHHLSKSDLLANQSQEVLEERTRIQFIRWSHTRIFQVPSEMTEDIMRDRIEQVRRSISRLTDVSAQDFSMRPSSSDC
Consider B1, for which the “Expression Rate (ER) %” value under setting [1] was 88%.

B2: ODF1 (protein, UniProt Q14990 1-250, looked up)
Outer dense fiber protein 1: MAALSCLLDSVRRDIKKVDRELRQLRCIDEFSTRCLCDLYMHPYCCCDLHPYPYCLCYSKRSRSCGLCDLYPCCLCDYKLYCLRPSLRSLERKAIRAIEDEKRELAKLRRTTNRILASSCCSSNILGSVNVCGFEPDQVKVRVKDGKVCVSAERENRYDCLGSKKYSYMNICKEFSLPPCVDEKDVTYSYGLGSCVKIESPCYPCTSPCSPCSPCSPCNPCSPCNPCSPYDPCNPCYPCGSRFSCRKMIL
On to B2, for which the “Expression Rate (ER) %” value under setting [1] is listed as 10%.

B3: PAGE1 (protein, UniProt O75459 1-146, looked up)
P antigen family member 1: MGFLRRLIYRRRPMIYVESSEESSDEQPDEVESPTQSQDSTPAEEREDEGASAAQGQEPEADSQELVQPKTGCELGDGPDTKRVCLRNEEQMKLPAEGPEPEADSQEQVHPKTGCERGDGPDVQELGLPNPEEVKTPEEDEGQSQP
With B3, the “Expression Rate (ER) %” value (TSA expression rate in CRC) was 0%.

B4: PRSS55 (protein, UniProt Q6UWB4 19-352, looked up)
Serine protease 55: GPRTPLPEAGVAILGRARGAHRPQPPHPPSPVSECGDRSIFEGRTRYSRITGGMEAEVGEFPWQVSIQARSEPFCGGSILNKWWILTAAHCLYSEELFPEELSVVLGTNDLTSPSMEIKEVASIILHKDFKRANMDNDIALLLLASPIKLDDLKVPICLPTQPGPATWRECWVAGWGQTNAADKNSVKTDLMKAPMVIMDWEECSKMFPKLTKNMLCAGYKNESYDACKGDSGGPLVCTPEPGEKWYQVGIISWGKSCGEKNTPGIYTSLVNYNLWIEKVTQLEGRPFNAEKRRTSVKQKPMGSPVSGVPEPGSPRSWLLLCPLSHVLFRAILY
Turning to B4, the “Expression Rate (ER) %” value under setting [1] is recorded as 1%.

B5: ODF3 (protein, UniProt Q96PU9 1-254, looked up)
Ciliary microtubule …: MTEEVWMGTWRPHRPRGPIMALYSSPGPKYLIPPTTGFMKHTPTKLRAPAYSFRGAPMLLAENCSPGPRYNVNPKILRTGKDLGPAYSILGRYQTKTMLTPGPGDYFPEKSTKYVFDSAPSHSISARTKAFRVDSTPGPAAYMLPMVMGPNTVGKASQPSFSIKGRSKLGGFSDDLHKTPGPAAYRQTDVRVTKFKAPQYTMAARVEPPGDKTLKPGPGAHSPEKVTLTKPCAPVVTFGIKHSDYMTPLLVDVE
For B5, the “TSA Expression Rate (ER)” value is 0%. In addition, the “Expression Rate (ER) %” value under setting [1] was 0%.

B6: MCAK (protein, UniProt Q99661 2-725, looked up)
Kinesin-like protein KIF2C: AMDSSLQARLFPGLAIKIQRSNGLIHSANVRTVNLEKSCVSVEWAEGGATKGKEIDFDDVAAINPELLQLLPLHPKDNLPLQENVTIQKQKRRSVNSKIPAPKESLRSRSTRMSTVSELRITAQENDMEVELPAAANSRKQFSVPPAPTRPSCPAVAEIPLRMVSEEMEEQVHSIRGSSSANPVNSVRRKSCLVKEVEKMKNKREEKKAQNSEMRMKRAQEYDSSFPNWEFARMIKEFRATLECHPLTMTDPIEEHRICVCVRKRPLNKQELAKKEIDVISIPSKCLLLVHEPKLKVDLTKYLENQAFCFDFAFDETASNEVVYRFTARPLVQTIFEGGKATCFAYGQTGSGKTHTMGGDLSGKAQNASKGIYAMASRDVFLLKNQPCYRKLGLEVYVTFFEIYNGKLFDLLNKKAKLRVLEDGKQQVQVVGLQEHLVNSADDVIKMIDMGSACRTSGQTFANSNSSRSHACFQIILRAKGRMHGKFSLVDLAGNERGADTSSADRQTRMEGAEINKSLLALKECIRALGQNKAHTPFRESKLTQVLRDSFIGENSRTCMIATISPGISSCEYTLNTLRYADRVKELSPHSGPSGEQLIQMETEEMEACSNGALIPGNLSKEEEELSSQMSSFNEAMTQIRELEEKAMEELKEIIQQGPDWLELSEMTEQPDYDLETFVNKAESALAQQAKHFSALRDVIKALRLAMQLEEQASRQISSKKRPQ
For the molecule B6, the “Expression Rate (ER) %” value (TSA expression rate in CRC) is listed as 100%.

B7: SART3 (protein, UniProt Q15020 2-963, looked up)
Spliceosome associated factor …: ATAAETSASEPEAESKAGPKADGEEDEVKAARTRRKVLSRAVAAATYKTMGPAWDQQEEGVSESDGDEYAMASSAESSPGEYEWEYDEEEEKNQLEIERLEEQLSINVYDYNCHVDLIRLLRLEGELTKVRMARQKMSEIFPLTEELWLEWLHDEISMAQDGLDREHVYDLFEKAVKDYICPNIWLEYGQYSVGGIGQKGGLEKVRSVFERALSSVGLHMTKGLALWEAYREFESAIVEAARLEKVHSLFRRQLAIPLYDMEATFAEYEEWSEDPIPESVIQNYNKALQQLEKYKPYEEALLQAEAPRLAEYQAYIDFEMKIGDPARIQLIFERALVENCLVPDLWIRYSQYLDRQLKVKDLVLSVHNRAIRNCPWTVALWSRYLLAMERHGVDHQVISVTFEKALNAGFIQATDYVEIWQAYLDYLRRRVDFKQDSSKELEELRAAFTRALEYLKQEVEERFNESGDPSCVIMQNWARIEARLCNNMQKARELWDSIMTRGNAKYANMWLEYYNLERAHGDTQHCRKALHRAVQCTSDYPEHVCEVLLTMERTEGSLEDWDIAVQKTETRLARVNEQRMKAAEKEAALVQQEEEKAEQRKRARAEKKALKKKKKIRGPEKRGADEDDEKEWGDDEEEQPSKRRRVENSIPAAGETQNVEVAAGPAGKCAAVDVEPPSKQKEKAASLKRDMPKVLHDSSKDSITVFVSNLPYSMQEPDTKLRPLFEACGEVVQIRPIFSNRGDFRGYCYVEFKEEKSALQALEMDRKSVEGRPMFVSPCVDKSKNPDFKVFRYSTSLEKHKLFISGLPFSCTKEELEEICKAHGTVKDLRLVTNRAGKPKGLAYVEYENESQASQAVMKMDGMTIKENIIKVAISNPPQRKVPEKPETRKAPGGPMLLPQTYGARGKGRTQLSLLPRALQRPSAAAPQAENGPAAAPAVAAPAATEAPKMSNADFAKLFLRK
As to B7, the “Expression Rate (ER) %” value (TSA expression rate in PEDIATRIC) was 73%.

B8: PAGE4 (protein, UniProt O60829 1-102, looked up)
P antigen family member 4: MSARVRSRSRGRGDGQEAPDVVAFVAPGESQQEEPPTDNQDIEPGQEREGTPPIEERKVEGDCQEMDLEKTRSERGDGSDVKEKTPPNPKHAKTKEAGDGQP
Take B8: the “Expression Rate (ER) %” value runs as follows: (TSA expression rate in CRC) 33%; under setting [1], 100%.

B9: NR6A1 (protein, UniProt Q15406 1-480, looked up)
Nuclear receptor subfamily 6 …: MERDEPPPSGGGGGGGSAGFLEPPAALPPPPRNGFCQDELAELDPGTISVSDDRAEQRTCLICGDRATGLHYGIISCEGCKGFFKRSICNKRVYRCSRDKNCVMSRKQRNRCQYCRLLKCLQMGMNRKAIREDGMPGGRNKSIGPVQISEEEIERIMSGQEFEEEANHWSNHGDSDHSSPGNRASESNQPSPGSTLSSSRSVELNGFMAFREQYMGMSVPPHYQYIPHLFSYSGHSPLLPQQARSLDPQSYSLIHQLLSAEDLEPLGTPMLIEDGYAVTQAELFALLCRLADELLFRQIAWIKKLPFFCELSIKDYTCLLSSTWQELILLSSLTVYSKQIFGELADVTAKYSPSDEELHRFSDEGMEVIERLIYLYHKFHQLKVSNEEYACMKAINFLNQDIRGLTSASQLEQLNKRYWYICQDFTEYKYTHQPNRFPDLMMCLPEIRYIAGKMVNVPLEQLPLLFKVVLHSCKTSVGKE
B9: the “Expression Rate (ER) %” value under setting [1] is recorded as 25%.

B10: TSP50 (protein, UniProt Q9UI38 40-385, looked up)
Probable threonine protease …: AGEAPGALSTADPADQSVQCVPKATCPSSRPRLLWQTPTTQTLPSTTMETQFPVSEGKVDPYRSCGFSYEQDPTLRDPEAVARRWPWMVSVRANGTHICAGTIIASQWVLTVAHCLIWRDVIYSVRVGSPWIDQMTQTASDVPVLQVIMHSRYRAQRFWSWVGQANDIGLLKLKQELKYSNYVRPICLPGTDYVLKDHSRCTVTGWGLSKADGMWPQFRTIQEKEVIILNNKECDNFYHNFTKIPTLVQIIKSQMMCAEDTHREKFCYELTGEPLVCSMEGTWYLVGLVSWGAGCQKSEAPPIYLQVSSYQHWIWDCLNGQALALPAPSRTLLLALPLPLSLLAAL
Regarding B10, the “Expression Rate (ER) %” value was 89% (TSA expression rate in CRC) and 57% (TSA expression rate in GASTRIC cancer).

B11: TEX101 (protein, UniProt Q9BY14 26-222, looked up)
Testis-expressed protein 101: LYCQKGLSMTVEADPANMFNWTTEEVETCDKGALCQETILIIKAGTETAILATKGCIPEGEEAITIVQHSSPPGLIVTSYSNYCEDSFCNDKDSLSQFWEFSETTASTVSTTLHCPTCVALGTCFSAPSLPCPNGTTRCYQGKLEITGGGIESSVEVKGCTAMIGCRLMSGILAVGPMFVREACPHQLLTQPRKTEN
For B11, the “TSA Expression Rate (ER)” value was 0%.

B12: ODF2 (protein, UniProt Q5BJF6 1-829, looked up)
Outer dense fiber protein 2: MSASSSGGSPRFPSCGKNGVTSLTQKKVLRAPCGAPSVTVTKSHKRGMKGDTVNVRRSVRVKTKVPWMPPGKSSARPVGCKWENPPHCLEITPPSSEKLVSVMRLSDLSTEDDDSGHCKMNRYDKKIDSLMNAVGCLKSEVKMQKGERQMAKRFLEERKEELEEVAHELAETEHENTVLRHNIERMKEEKDFTILQKKHLQQEKECLMSKLVEAEMDGAAAAKQVMALKDTIGKLKTEKQMTCTDINTLTRQKELLLQKLSTFEETNRTLRDLLREQHCKEDSERLMEQQGALLKRLAEADSEKARLLLLLQDKDKEVEELLQEIQCEKAQAKTASELSKSMESMRGHLQAQLRSKEAENSRLCMQIKNLERSGNQHKAEVEAIMEQLKELKQKGDRDKESLKKAIRAQKERAEKSEEYAEQLHVQLADKDLYVAEALSTLESWRSRYNQVVKEKGDLELEIIVLNDRVTDLVNQQQTLEEKMREDRDSLVERLHRQTAEYSAFKLENERLKASFAPMEDKLNQAHLEVQQLKASVKNYEGMIDNYKSQVMKTRLEADEVAAQLERCDKENKILKDEMNKEIEAARRQFQSQLADLQQLPDILKITEAKLAECQDQLQGYERKNIDLTAIISDLRSRIEHQGDKLEMAREKHQASQKENKQLSLKVDELERKLEATSAQNIEFLQVIAKREEAIHQSQLRLEEKTRECGTLARQLESAIEDARRQVEQTKEHALSKERAAQNKILDLETQLSRTKTELSQLRRSRDDADRRYQSRLQDLKDRLEQSESTNRSMQNYVQFLKSSYANVFGDGPYSTFLTSSPIRSRSPPA
Take B12: the “Expression Rate (ER) %” value under setting [1] is recorded as 10%.
